B1: recombinant MGL (macrophage galactose-type lectin) tagged with a human IgG1 Fc fragment (Fc fusion)
chain: QNSKFQRDLVTLRTDFSNFTSNTVAEIQALTSQGSSLEETIASLKAEVEGFKQERQAGVSELQEHTTQKAHLGHCPHCPSVCVPVHSEMLLRVQQLVQDLKKLTCQVATLNNNASTEGTCCPVNWVEHQDSCYWFSHSGMSWAEAEKYCQLKNAHLVVINSREEQNFVQKYLGSAYTWMGLSDPEGAWKWVDGTDYATGFQNWKPGQPDDWQGHGLGGGEDCAHFHPDGRWNDDVCQRPYHWVCEAGLGQTSQESH

Key:
[1] = molecular target: MGL receptor on murine bone marrow-derived dendritic cells (mouse (endogenous in BMDCs)) (UniProt Q8JZN1)
UniProt Q8JZN1, sequence (Q8JZN1 entry or part of it): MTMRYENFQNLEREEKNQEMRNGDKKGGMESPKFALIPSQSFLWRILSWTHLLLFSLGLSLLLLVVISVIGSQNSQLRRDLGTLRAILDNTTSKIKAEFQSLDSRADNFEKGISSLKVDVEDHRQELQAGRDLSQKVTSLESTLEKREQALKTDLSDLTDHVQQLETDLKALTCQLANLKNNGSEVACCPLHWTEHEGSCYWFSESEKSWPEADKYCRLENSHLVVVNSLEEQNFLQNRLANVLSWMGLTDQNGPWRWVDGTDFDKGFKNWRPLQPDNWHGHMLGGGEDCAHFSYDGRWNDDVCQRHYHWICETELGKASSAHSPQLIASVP

[2] = molecular target: peptide 12, MUC1 tandem repeat peptide with the TPEaa trivalent alpha-S-GalNAc glycocluster 1 at the N-terminus, biotinylated; assay: ELISA; biotinylated peptides 9-14 coupled to streptavidin-coated plates at twofold serial dilutions; probed with recombinant MGL-Fc at a constant concentration; detection with goat anti-human Fc-peroxidase; EC50 from curve fitting over the peptide concentration
[3] = molecular target: peptide 14, MUC1 tandem repeat (glyco)peptide with a triethylene glycol spacer and the TPEaa trivalent alpha-S-GalNAc glycocluster 1 at the N-terminus, biotinylated; assay: as above
[4] = molecular target: peptide 13, MUC1 tandem repeat (glyco)peptide with the TPEaa trivalent alpha-S-GalNAc glycocluster 1 at the N-terminus, biotinylated; assay: as above

| Molecule | decrease in accessible MGL on the BMDC surface (anti-MGL antibodies, flow cytometry) after treatment with peptide 12 for 30 min at 37 °C, against untreated cells [1] [%] | fold avidity against peptide 11 [2] [fold] | EC50 [3] [nM] | EC50 [4] [nM] | fold avidity against peptide 11 [4] [fold] |
| --- | --- | --- | --- | --- | --- |
| peptide 12, MUC1 tandem repeat peptide with the TPEaa trivalent alpha-S-GalNAc glycocluster 1 at the N-terminus, biotinylated | 48 |  |  |  |  |
| B1 |  | 10 | 2.65 | 3.9 | 10 |

Source: article PMC10288512, “MUC1 Glycopeptide Vaccine Modified with a GalNAc Glycocluster Targets the Macrophage Galactose C-type Lectin on Dendritic Cells to Elicit an Improved Humoral Response” (Journal of the American Chemical Society, 2023)
